# According to PMC10182996:
# Biological target: CPn0677-His (recombinant full-length CPn0677 with C-terminal 10His tag) (Chlamydia pneumoniae GiD)
# Assay: SEC; Superdex 200 Increase 10/300 GL, 4 °C, 0.5 ml/min, 5.2 mg CPn0677 (5 mg/ml) in PBS pH 6.0, against standard proteins
substance,measurement,value
CPn0677-His (recombinant full-length CPn0677 with C-terminal 10His tag) (natural protein),stoichiometry N,2
